Results on seven molecules are retold here after article PMC7263589, “Integration of phage and yeast display platforms: A reliable and cost effective approach for binning of peptides as displayed on-phage” (PLoS ONE, 2020).

Ends that are not written are not given here.

Assay [1] addresses T1, IL-23-AVI (human, UniProt Q9NPF7 20-189; P29460 23-328).
T1 construct: IL-23 p19 subunit, human; IL-12/IL-23 p40 subunit, human; Captured on streptavidin chips and beads, so biotinylation of the Avi tag is implied; also called Avi-tagged IL-23; recombinant IL-23
T1 sequence (looked up) 1: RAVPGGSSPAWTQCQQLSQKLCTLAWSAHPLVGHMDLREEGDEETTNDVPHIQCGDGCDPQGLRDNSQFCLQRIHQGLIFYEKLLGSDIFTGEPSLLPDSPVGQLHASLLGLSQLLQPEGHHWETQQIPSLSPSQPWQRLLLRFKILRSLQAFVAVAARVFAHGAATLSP
T1 sequence (looked up) 2: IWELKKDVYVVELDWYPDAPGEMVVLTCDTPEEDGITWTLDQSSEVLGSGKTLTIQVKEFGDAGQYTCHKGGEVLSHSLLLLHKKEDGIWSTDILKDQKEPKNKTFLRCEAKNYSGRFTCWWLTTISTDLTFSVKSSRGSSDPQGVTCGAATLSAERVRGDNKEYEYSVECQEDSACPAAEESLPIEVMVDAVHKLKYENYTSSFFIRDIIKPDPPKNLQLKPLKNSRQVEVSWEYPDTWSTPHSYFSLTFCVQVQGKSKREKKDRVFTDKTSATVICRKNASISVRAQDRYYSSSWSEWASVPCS
Kind of assay: SPR; Biacore T200, 25°C; 200–1000 RU of IL-23-AVI captured to streptavidin chip, IL-23R-FLAG-HIS as analyte, single cycle kinetics; 1:1 model. The settings on record: both partners purified. (SPR reads the build-up and loss of mass on a sensor chip optically.)

Assay [2] concerns the target T2, Fluorescently labeled IL-23R, Q5VWK5.
T2 chain: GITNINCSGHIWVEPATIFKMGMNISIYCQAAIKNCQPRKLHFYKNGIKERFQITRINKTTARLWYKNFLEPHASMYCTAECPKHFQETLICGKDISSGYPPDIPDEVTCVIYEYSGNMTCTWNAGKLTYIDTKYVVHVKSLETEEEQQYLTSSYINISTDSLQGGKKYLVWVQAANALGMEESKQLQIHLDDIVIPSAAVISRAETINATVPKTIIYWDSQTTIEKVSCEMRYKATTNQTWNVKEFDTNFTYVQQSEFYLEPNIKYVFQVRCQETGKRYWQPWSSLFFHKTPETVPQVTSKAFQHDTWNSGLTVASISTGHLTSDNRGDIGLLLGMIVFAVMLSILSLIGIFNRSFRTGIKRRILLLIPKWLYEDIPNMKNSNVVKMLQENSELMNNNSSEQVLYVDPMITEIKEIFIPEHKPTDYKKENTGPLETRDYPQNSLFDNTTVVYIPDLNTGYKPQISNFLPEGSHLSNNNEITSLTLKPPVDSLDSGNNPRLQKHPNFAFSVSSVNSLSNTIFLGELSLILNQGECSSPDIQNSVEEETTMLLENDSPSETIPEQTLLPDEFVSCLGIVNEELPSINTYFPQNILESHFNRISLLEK
Kind of assay: flow cytometry on yeast-displayed IL-23. The settings on record: chain shown with the change; n = 1; parent: est. 1.05; read off a plot. (Flow cytometry measures light scatter and fluorescence of single cells or particles in a stream.)

Assay [3] addresses T1, IL-23-AVI. As to the kind of experiment: SPR; Biacore T200, 25°C, 50 μl/min; 2000–9000 RU of IL-23-AVI captured to streptavidin chip, peptides as analyte (3-fold series, up to 30 μM); 10 mM HEPES pH 7.5, 150 mM NaCl, 0.005% P20, 3% DMSO; multi-cycle, single cycle kinetics for 23–652; 1:1 model; n = 1. The note with it: both partners purified.
Assay [4] addresses T1, IL-23-AVI. As to the kind of experiment: AlphaScreen or HTRF; TR-FRET; compounds pre-incubated with IL-23R-FLAG 1 h, then IL-23-AVI; Europium-streptavidin and anti-FLAG-allophycocyanin; 25 mM HEPES, 150 mM NaCl, 0.02% Tween 20, 0.1% BSA, pH 7.4, 1% DMSO; n = 1. The settings on record: both partners purified.
Assay [5] addresses T1, IL-23-AVI. As to the kind of experiment: AlphaScreen or HTRF; AlphaLISA; IL-23-AVI (1.5 nM) pre-incubated with peptide 30 min, then FLAG-tagged IL-23R (3 nM); streptavidin donor and anti-FLAG acceptor beads; 25 mM HEPES pH 7.4, 150 mM NaCl, 0.02% Tween 20, 0.1% BSA; room temperature; n = 1. The note with it: both partners purified. (Alpha assays give light when donor and acceptor beads are brought close together.)

The target of the next assay is T3, IL-23-HIS (human, UniProt Q9NPF7 20-189; P29460 23-328).
T3 construct: IL-23 p19 subunit, human; IL-12/IL-23 p40 subunit, human; also called IL-23 only; IL-23 protein
T3 sequence (looked up) 1: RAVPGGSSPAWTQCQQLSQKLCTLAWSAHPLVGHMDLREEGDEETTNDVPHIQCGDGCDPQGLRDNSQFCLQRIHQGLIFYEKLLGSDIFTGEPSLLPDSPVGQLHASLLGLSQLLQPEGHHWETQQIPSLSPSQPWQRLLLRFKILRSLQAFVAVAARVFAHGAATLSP
T3 sequence (looked up) 2: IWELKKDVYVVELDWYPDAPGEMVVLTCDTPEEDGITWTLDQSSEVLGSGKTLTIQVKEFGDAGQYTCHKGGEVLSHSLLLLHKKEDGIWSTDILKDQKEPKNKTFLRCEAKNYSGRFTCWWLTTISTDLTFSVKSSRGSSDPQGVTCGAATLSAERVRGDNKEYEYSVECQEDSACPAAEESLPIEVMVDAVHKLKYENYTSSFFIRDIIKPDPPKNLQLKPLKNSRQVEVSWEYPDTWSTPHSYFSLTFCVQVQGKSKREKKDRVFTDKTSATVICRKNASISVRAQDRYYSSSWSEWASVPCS
Kind of assay: SPR; competition SPR, 25°C; IL-23R-Fc-AVI (<1000 RU) captured on Protein-A; 20 nM IL-23 mixed with one concentration of peptide or cold IL-23R injected 30 s; 10 mM HEPES pH 7.5, 150 mM NaCl, 0.005% P20, 1% BSA; n = 1. The note with it: both partners purified.

B1: IL-23R-FLAG-HIS (receptor)
chain: GITNINCSGHIWVEPATIFKMGMNISIYCQAAIKNCQPRKLHFYKNGIKERFQITRINKTTARLWYKNFLEPHASMYCTAECPKHFQETLICGKDISSGYPPDIPDEVTCVIYEYSGNMTCTWNAGKLTYIDTKYVVHVKSLETEEEQQYLTSSYINISTDSLQGGKKYLVWVQAANALGMEESKQLQIHLDDIVIPSAAVISRAETINATVPKTIIYWDSQTTIEKVSCEMRYKATTNQTWNVKEFDTNFTYVQQSEFYLEPNIKYVFQVRCQETGKRYWQPWSSLFFHKTPETVPQVTSKAFQHDTWNSGLTVASISTGHLTSDNRGDIG
modifications: Soluble monomeric ectodomain, FLAG and His tags left out. Limits are not printed in the main text (constructs are in S1 Table of the supplement), so the mature extracellular domain from UniProt …
By Kd is commonly meant the equilibrium constant for the complex coming apart. One may read the koff as the rate constant with which the complex falls apart. Broadly, the kon is the rate constant with which the complex forms. Read a high kon as fast association. For B1, in the assay with IL-23-AVI [1], the Kd was 0.00892 µM, the koff is 0.00151 s⁻¹ and the kon was determined as 170000 M⁻¹ s⁻¹.

B2: wild-type IL-23 displayed on yeast, Q9NPF7;P29460 K145A (protein)
chain 1: RAVPGGSSPAWTQCQQLSQKLCTLAWSAHPLVGHMDLREEGDEETTNDVPHIQCGDGCDPQGLRDNSQFCLQRIHQGLIFYEKLLGSDIFTGEPSLLPDSPVGQLHASLLGLSQLLQPEGHHWETQQIPSLSPSQPWQRLLLRFAILRSLQAFVAVAARVFAHGAATLSP
chain 2: IWELKKDVYVVELDWYPDAPGEMVVLTCDTPEEDGITWTLDQSSEVLGSGKTLTIQVKEFGDAGQYTCHKGGEVLSHSLLLLHKKEDGIWSTDILKDQKEPKNKTFLRCEAKNYSGRFTCWWLTTISTDLTFSVKSSRGSSDPQGVTCGAATLSAERVRGDNKEYEYSVECQEDSACPAAEESLPIEVMVDAVHKLKYENYTSSFFIRDIIKPDPPKNLQLKPLKNSRQVEVSWEYPDTWSTPHSYFSLTFCVQVQGKSKREKKDRVFTDKTSATVICRKNASISVRAQDRYYSSSWSEWASVPCS
For B2, the ratio to parent in assay [2] was 0.18.

B3: wild-type IL-23 displayed on yeast, Q9NPF7;P29460 L141A (protein)
chain 1: RAVPGGSSPAWTQCQQLSQKLCTLAWSAHPLVGHMDLREEGDEETTNDVPHIQCGDGCDPQGLRDNSQFCLQRIHQGLIFYEKLLGSDIFTGEPSLLPDSPVGQLHASLLGLSQLLQPEGHHWETQQIPSLSPSQPWQRLALRFKILRSLQAFVAVAARVFAHGAATLSP
chain 2: IWELKKDVYVVELDWYPDAPGEMVVLTCDTPEEDGITWTLDQSSEVLGSGKTLTIQVKEFGDAGQYTCHKGGEVLSHSLLLLHKKEDGIWSTDILKDQKEPKNKTFLRCEAKNYSGRFTCWWLTTISTDLTFSVKSSRGSSDPQGVTCGAATLSAERVRGDNKEYEYSVECQEDSACPAAEESLPIEVMVDAVHKLKYENYTSSFFIRDIIKPDPPKNLQLKPLKNSRQVEVSWEYPDTWSTPHSYFSLTFCVQVQGKSKREKKDRVFTDKTSATVICRKNASISVRAQDRYYSSSWSEWASVPCS
As to B3, in assay [2], the ratio to parent was found to be 0.1.

B4: wild-type IL-23 displayed on yeast, Q9NPF7;P29460 W137A (protein)
chain 1: RAVPGGSSPAWTQCQQLSQKLCTLAWSAHPLVGHMDLREEGDEETTNDVPHIQCGDGCDPQGLRDNSQFCLQRIHQGLIFYEKLLGSDIFTGEPSLLPDSPVGQLHASLLGLSQLLQPEGHHWETQQIPSLSPSQPAQRLLLRFKILRSLQAFVAVAARVFAHGAATLSP
chain 2: IWELKKDVYVVELDWYPDAPGEMVVLTCDTPEEDGITWTLDQSSEVLGSGKTLTIQVKEFGDAGQYTCHKGGEVLSHSLLLLHKKEDGIWSTDILKDQKEPKNKTFLRCEAKNYSGRFTCWWLTTISTDLTFSVKSSRGSSDPQGVTCGAATLSAERVRGDNKEYEYSVECQEDSACPAAEESLPIEVMVDAVHKLKYENYTSSFFIRDIIKPDPPKNLQLKPLKNSRQVEVSWEYPDTWSTPHSYFSLTFCVQVQGKSKREKKDRVFTDKTSATVICRKNASISVRAQDRYYSSSWSEWASVPCS
Regarding B4, the ratio to parent in assay [2] came out at 0.1.

B5: peptide 23–437 (free, chemically synthesized) (peptide)
peptide: FTKEIDSWWLSLMSS
notes: selected from a peptide phage library against IL-23; No cysteines, 15 residues; source: synthetic peptide (CPC Scientific)
In general, IC50 refers to the point on the concentration scale where inhibition reaches its midpoint. In the assay with IL-23-AVI [3], B5 displayed a Kd of 10.5 µM, a koff of 1.86 s⁻¹ and an on-rate (kon) of 178000 M⁻¹ s⁻¹. The molecule further had an IC50 with IL-23-AVI [4] of 7 µM. The same molecule registered an IC50 in the assay with IL-23-AVI [5] of 1.4 µM. Further, the “% inhibition of IL-23 binding to immobilised IL-23R (peptide at 30 μM)” value (“% inhibition of IL-23 binding” below) with IL-23-HIS was determined as 57.6%.

B6: peptide 23–447 (free, chemically synthesized) (peptide)
peptide: LECLYYLRWKVCDN
modifications: not fully specified (bridges); cysteine pairing not given here
notes: selected from a peptide phage library against IL-23; Two cysteines; source: synthetic peptide (CPC Scientific)
As for B6, in the assay with IL-23-AVI [3], the Kd was about 27.5 µM, the koff was about 1.33 s⁻¹ and the kon was about 48300 M⁻¹ s⁻¹. Besides, in the assay with IL-23-AVI [4], the midpoint of inhibition, the IC50, lay at 24 µM. The molecule further gave a half-inhibitory concentration (IC50) with IL-23-AVI [5] of 6.7 µM. The “% inhibition of IL-23 binding” value with IL-23-HIS worked out at 78.7%.

B7: peptide 23–441 (free, chemically synthesized) (peptide)
peptide: QKITQCVYIIWTYPCLLNDV
notes: as for B6
Turning to B7, in the assay with IL-23-AVI [3], the Kd came to 0.911 µM, the off-rate constant (koff) worked out at 0.174 s⁻¹ and the kon is 190000 M⁻¹ s⁻¹. In the assay with IL-23-AVI [4], 5.7 µM corresponded to half-maximal inhibition (IC50). The same molecule registered an IC50 with IL-23-AVI [5] of 2.5 µM. Besides, the “% inhibition of IL-23 binding” value in the assay with IL-23-HIS stood at 100%.
